The values that follow are results of earlier work, collected in article PMC2702134.

In the series the target is Glu50 (UniProt position 50, LEWIGEINPDS).

Take “Catalytic antibody 34E4 (Kemp eliminase)”: the pKa is reported as 6.4.
